Assay [1] addresses T1, B7-H3 (4Ig-B7-H3) endogenously expressed on MDA-MB-231 cells (UniProt Q5ZPR3 29-534, limits assumed).
T1 construct: whole, on cells; also called 细胞表面的B7-H3抗原
T1 sequence (looked up): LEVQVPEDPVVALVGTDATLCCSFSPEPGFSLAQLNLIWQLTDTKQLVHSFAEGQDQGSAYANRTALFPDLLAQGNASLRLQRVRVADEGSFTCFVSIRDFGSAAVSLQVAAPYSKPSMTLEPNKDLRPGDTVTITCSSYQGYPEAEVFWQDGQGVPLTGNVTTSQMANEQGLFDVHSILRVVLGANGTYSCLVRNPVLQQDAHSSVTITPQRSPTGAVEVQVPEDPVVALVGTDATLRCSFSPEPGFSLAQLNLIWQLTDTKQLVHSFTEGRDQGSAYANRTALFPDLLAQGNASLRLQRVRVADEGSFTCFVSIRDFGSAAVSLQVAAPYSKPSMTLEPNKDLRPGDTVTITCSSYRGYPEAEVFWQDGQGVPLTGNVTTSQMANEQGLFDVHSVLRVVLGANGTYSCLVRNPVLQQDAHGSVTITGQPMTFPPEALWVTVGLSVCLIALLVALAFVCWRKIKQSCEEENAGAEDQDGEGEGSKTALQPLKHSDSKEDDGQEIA
Briefly: FACS titration on MDA-MB-231 cells.

In assay [2] the target is T1, B7-H3 (4Ig-B7-H3) endogenously …. As to the kind of experiment: FACS, MDA-MB-231 cells.
Assay [3] has as its target T2, 人B7-H3变体1(4Ig-B7-H3) on stable cells 293-h4Ig-B7-H3-copGFP (human, UniProt Q5ZPR3 29-534).
T2 construct: Full-length CDS cloned in pCDH-EF1-T2A-copGFP and expressed on stably transduced cells; residues left by T2A cleavage not described
T2 sequence: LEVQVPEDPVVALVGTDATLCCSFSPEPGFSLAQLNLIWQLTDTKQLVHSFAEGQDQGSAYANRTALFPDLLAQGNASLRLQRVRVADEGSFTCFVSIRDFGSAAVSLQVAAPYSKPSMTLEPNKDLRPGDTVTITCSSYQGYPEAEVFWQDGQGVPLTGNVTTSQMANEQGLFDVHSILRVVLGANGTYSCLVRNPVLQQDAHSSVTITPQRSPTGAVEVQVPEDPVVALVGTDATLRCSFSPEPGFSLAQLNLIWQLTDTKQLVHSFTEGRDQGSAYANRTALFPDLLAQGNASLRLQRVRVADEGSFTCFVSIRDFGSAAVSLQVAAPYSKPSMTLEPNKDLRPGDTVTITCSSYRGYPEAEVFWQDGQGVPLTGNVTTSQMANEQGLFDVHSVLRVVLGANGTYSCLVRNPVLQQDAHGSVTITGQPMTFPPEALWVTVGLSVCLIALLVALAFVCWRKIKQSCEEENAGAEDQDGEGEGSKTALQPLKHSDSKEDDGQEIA
As to the kind of experiment: FACS, 293-h4Ig-B7-H3-copGFP stable cells.

B1: MGA-271 (NCT02475213) (antibody, V domains shown)
VH: EVQLVESGGGLVQPGGSLRLSCAASGFTFSSFGMHWVRQAPGKGLEWVAYISSDSSAIYYADTVKGRFTISRDNAKNSLYLQMNSLRDEDTAVYYCGRGRENIYYGSRLDYWGQGTTVTVSS
VL: DIQLTQSPSFLSASVGDRVTITCKASQNVDTNVAWYQQKPGKAPKALIYSASYRYSGVPSRFSGSGSGTDFTLTISSLQPEDFATYYCQQYNNYPFTFGQGTKLEIK
With B1, the EC50 – broadly, the concentration needed to bring the measured effect to its halfway point – in assay [1] is 23.8 µg/mL.

B2: h27B4-H4-L2 (antibody, human IgG1, kappa, V domains shown)
VH: EVQLVQSGAEVKKPGESLKISCKASGYTFTTYWIGWVRQMPGKGLEWMGIIYPGDGGSRYSPSFQGQVTISADKSISTAYLQWSSLKASDTAMYYCARGGNYISFPMYYWGQGTLVTVSS
VL: VIWMTQSPSLLSASTGDRVTISCKASRGVSTALAWYQQKPGKAPELLIYWASTLQSGVPSRFSGSGSGTDFTLTISCLQSEDFATYYCQQHYDTPYTFGQGTKLEIKR
notes: Whole IgG, humanized; optimized hIgG1 (L235V, F243L, R292P, Y300L, P396L) and human kappa; also called zw.M0883B9.27B4Z04
As to B2, the binding result in assay [2] and in assay [3] was “binds” throughout.

B3: 嵌合抗体xw.M0883B9.27B4 (antibody, human IgG1, kappa, V domains shown)
VH: QVQLQQSGAELARPGASVKLSCKASGYTFTTYWMQWIQQRPGQGLEWIGAIYPGDGGSRYTQRFKGKATMTADPSSSTVYMQLTSLASEDSAVYFCARGGNYISFPMYYWGQGTSVTVSP
VL: DIVMTQSHKFMSTSVGDRVSITCKASRGVSTAVAWYQQKPGQSPKLLIYWASTRHTGVPDRFTGSGSGTDYTLTISSVQAEDLALYYCQQHYDTPYTFGGGTKLEIQR
notes: also called 嵌合抗体27B4; 27B4嵌合抗体
In turn, B3 gave a half-maximal effective concentration (EC50) in assay [1] of 3.2 µg/mL.

B4: h27B4-H2-L3 (antibody, human IgG1, kappa, V domains shown)
VH: QVQLVQSGAEVKKPGSSVKVSCKASGYTFTTYWISWVRQAPGQGLEWMGGIYPGDGGSNYAQKFQGRVTITADESTSTAYMELSSLRSEDTAVYYCARGGNYISFPMYYWGQGTLVTVSS
VL: EIVMTQSPATLSVSPGERATLSCKASRGVSTALAWYQQKPGQAPRLLIYWASTRATGIPARFSGSGSGTEFTLTISSLQSEDFAVYYCQQHYDTPYTFGQGTKLEIKR
notes: Whole IgG, humanized; optimized hIgG1 (L235V, F243L, R292P, Y300L, P396L) and human kappa; also called zw.M0883B9.27B4Z03
For B4, the binding result in assay [2] and in assay [3] was “binds” in each case.
